For the experiment, the target named is CD19 (UniProt P15391). Briefly: cell-based or functional assay.
UniProt P15391, sequence (P15391 20-291 limits assumed): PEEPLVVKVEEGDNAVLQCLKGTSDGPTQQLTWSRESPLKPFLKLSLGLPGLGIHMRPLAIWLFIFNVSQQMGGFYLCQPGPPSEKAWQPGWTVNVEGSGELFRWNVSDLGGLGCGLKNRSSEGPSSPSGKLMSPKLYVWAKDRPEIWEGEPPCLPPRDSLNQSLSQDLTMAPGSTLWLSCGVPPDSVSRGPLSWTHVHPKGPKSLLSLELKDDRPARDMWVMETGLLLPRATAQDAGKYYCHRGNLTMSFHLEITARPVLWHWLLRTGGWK

In turn, “anti-CD19 chimeric antigen receptor (CAR) with an anti-CD19 scFv derived from murine antibody FMC63 (VL-linker-VH orientation), an immunoglobulin-derived spacer, a CD28-derived transmembrane domain, a 4-1BB costimulatory region and a CD3-zeta intracellular signaling domain” came in with a relative standard deviation among lots of a parameter indicative of TNFα production by CD4+ CAR+ T cells after stimulation with CD19 of 37% and a relative standard deviation among lots of a parameter indicative of TNFα production by CD8+ CAR+ T cells after stimulation with CD19 of 51%.

(Values after patent publication US20210128616A1.)
